Strand notation (5' to 3'): a small letter for the sugar, then the base; units joined by * are phosphorothioate-linked, units joined directly phosphodiester-linked; [ ] holds rarer units or linkages, { } end groups; capitals alone tell only the bases. {ppp} = triphosphate; r = 2'-OH (RNA); f = 2'-fluoro
Assays:
WM266-4 cells = type: cell-based
Description: For the intracellular delivery of immune stimulatory RNAs, RNAs were transfected with the DharmaFECT® Duo liposomal transfection reagent (Thermo Scientific, Waltham, Mass.) at a transfection reagent (μl):RNA (μg) ratio of 3.75:1, according to the manufacturer's instructions. Unless otherwise stated, for the induction of innate immune responses and apoptosis, immune stimulatory RNAs (500 ng/ml) were transfected into 50 to 70% confluent cells. Cells were incubated with an RNA-transfection agent complex for 5 h, followed by replenishment with fresh culture medium. To electroporate cells, 1×10^5 cells suspended in 200 μl Opti-MEM I (Invitrogen) were mixed with 1 μg of immune stimulatory RNAs or 5 μg of 2′Fluoro pyrimidine ribonucleoside triphosphate in 2-mm cuvettes and were electroporated at 300 V for 500 μs using an Electro Square Porator ECM 830 (BTX, San Diego, Calif.). For the knockdown of RNA-sensing PRRs, cells were transfected with PRR-specific siRNAs (25 nM) twice at 2-day intervals using DharmaFECT®-1 (Thermo Scientific). At 5 h after the second siRNA transfection, cells were harvested, replated into a 96-well plate and incubated overnight. Cells were then treated with immune stimulatory RNA transfections. Staurosporine (2 μM) (Sigma, St Louis, Mo.) and recombinant human IFNβ (20 ng/ml) (PeproTech, Rocky Hill, N.J.) were used as positive controls of anti-melanoma cytotoxicity. B18R (100 ng/ml) (eBioscience, San Diego, Calif.) was added directly to the growth media of cells to neutralize IFNβ.
Growth inhibition relative to untreated cells was quantified at 72 h after RNA transfection using an MTT Cell Proliferation Assay Kit (Cayman Chemicals, Ann Arbor, Mich.), according to the manufacturer's instructions. The percent growth inhibition was calculated by using the following equation: % growth inhibition=([O.D.]untreated−[O.D.]treated)/[O.D.]untreated×100. The induction of cell death was measured 48 h after RNA transfection by flow cytometry after staining with Annexin V-PE and 7-Aminoactinomycin D (7-AAD) using the PE Annexin V Apoptosis Detection Kit I (BD Biosciences, San Jose, Calif.) and analyzed using the CellQuest software (BD Biosciences).

[1] = Serum stability in 10% fetal bovine serum, polyacrylamide gel; type: in vitro ADME; settings: 37° C., 0 to 24 h
Description: FIG. 6A-FIG. 6D are a set of graphs showing that 2′F modification increases nuclease resistance, cytotoxicity and inflammatory cytokine induction of immunostimulatory 5′ppp ssRNAs. FIG. 6A is a graph showing ability of various modified ssRNAs to inhibit the growth of cells over concentration ranges. WM266-4 cells were treated with transfection reagent alone (mock) or the complex of transfection reagent and 5′ppp 10F containing 2′F pyrimidine, 2′OMe pyrimidine or unmodified pyrimidine (2′OH) at various concentrations. The viral dsRNA analog PolyI:C was used as an experimental control. Growth inhibition was assessed at 72 h post treatments using the MTT assay. FIG. 6B is a set of graphs showing cytokine induction after treatment with the indicated ssRNAs. WM266-4 cells were either treated with transfection reagent alone (mock) or the complex of transfection reagent and 5′ppp 2′OH 10F, 5′ppp 2′F 10F, 5′ppp 2′OMe 10F or poly I:C (0.5 μg/ml each). The secretion of IFNβ and IL-8 by the melanoma cells was analyzed at 24 h after treatment by ELISA. The data represent the mean of three experiments. Error bars represent the S.D.; *P<0.05 (5′ppp 2′F 10F vs 5′ppp 2′OH 10F); P<0.001 (5′ppp 2′OMe 10F vs 5′ppp 2′OH 10F). […] RNAs were analyzed on 12% polyacrylamide gels. […] At 4 h, 8, 12 and 24 h after transfection, total RNAs were isolated and cellular 10F RNA levels were analyzed by RT-PCR. […]

B1: 10F: 5′ppp 2′F pyrimidine ssRNA aptamer, 71 nt, human melanocytic cell-targeting, SEQ ID NO: 4 (nucleic acid)
chain: {ppp}-rGrGrGrArGrGrAfCrGrAfUrGfCrGrGfUrAfCfCfUrGrAfCrArGfCrAfUfCfUfUrGrAfUrArAfUrGrGfUfCfCfUrAfCrGrGrArGfCfCrGfUfUfCfCrArGrAfCrGrAfCfUfCrGfCfCfCrGrA
cytotoxicity, fold compared to unmodified 5′ppp RNAs (WM266-4 cells; 5′ppp 10F variants, 72 h, MTT): over 2 fold | cell death / apoptosis of melanoma cells on co-treatment with B18R (WM266-4 cells; B18R 100 ng/ml, type I IFN decoy receptor): only partially rescued | growth inhibition / cytotoxicity (anti-melanoma effect), in words (WM266-4 cells; liposomal transfection, 72 h, MTT): comparable to levels observed for the gold standard PRR-activating anti-cancer agent, polyI:C | serum stability [1]: resistant to serum degradation
